Experimental data: US20030148958A1 (PROCTER AND GAMBLE, published 2003)
Ends that are not written are not given here.

T1: corticotropin releasing factor 2 receptor
T1 sequence (Q13324 whole entry, species assumed, looked up): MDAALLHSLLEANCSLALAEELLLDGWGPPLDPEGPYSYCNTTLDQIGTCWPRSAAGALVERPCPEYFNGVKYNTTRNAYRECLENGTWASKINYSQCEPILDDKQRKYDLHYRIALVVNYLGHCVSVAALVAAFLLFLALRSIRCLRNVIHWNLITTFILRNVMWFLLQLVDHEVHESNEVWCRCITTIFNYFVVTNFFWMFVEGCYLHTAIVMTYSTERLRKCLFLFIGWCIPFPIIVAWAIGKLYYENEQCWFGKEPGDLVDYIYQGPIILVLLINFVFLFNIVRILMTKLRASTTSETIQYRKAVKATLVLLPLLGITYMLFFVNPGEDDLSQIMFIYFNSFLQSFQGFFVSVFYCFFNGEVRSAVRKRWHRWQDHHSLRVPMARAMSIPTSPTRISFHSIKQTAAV


Target: corticotropin releasing factor 1 receptor
Assay: cell-based or functional assay
Wherever CRF1R Emax is given: reference of the scale not given here.
Wherever CRF2R Emax is given: reference of the scale not given here.

| CRF1R EC50 | CRF1R Emax | Binder |
| --- | --- | --- |
| 100 nM | 5.3% | SQEPPISLDLTIHLLREVLEMTKADQLAQQAHSNRKLLDIA-NH2 [SEQ ID NO 87] |
| > 100 nM | 12% | ZGPPISIDLPTALLRKMIEIEKQEKEKQQAANNRLLLDTI (C-terminal amide) [SEQ ID NO 61] |
| 73.2 nM | 34% | ZGPPISIDLPGYLLRKMIEIEKQEKEKQQAANNRLLLDTI (C-terminal amide) [SEQ ID NO 63] |
| 44.2 nM | 96% | ZGPPISIDLPFELLRKMIEIEKQEKEKQQAANNRLLLDTI (C-terminal amide) [SEQ ID NO 67] |
| > 100 nM | 6% | ZGPPISIDLPTELLRKMIEIEKQEKEKQQAANNRLLLDTI (C-terminal amide) [SEQ ID NO 71] |
| > 100 nM | 7% | ZGPPISIDLPIELLRKMIEIEKQEKEKQQAANNRLLLDTI (C-terminal amide) [SEQ ID NO 76] |
| > 100 nM | 55% | ZGPPISIDLPLQLLRKMIEIEKQEKEKQQAANNRLLLDTI (C-terminal amide) [SEQ ID NO 80] |
| > 100 nM | 7% | ZGPPISIDLPTHLLRKMIEIEKQEKEKQQAANNRLLLDTI (C-terminal amide) [SEQ ID NO 74] |
| > 100 nM | 8% | ZGPPISIDLPTYLLRKMIEIEKQEKEKQQAANNRLLLDTI (C-terminal amide) [SEQ ID NO 70] |
| > 100 nM | 6% | ZGPPISIDLPIQLLRKMIEIEKQEKEKQQAANNRLLLDTI (C-terminal amide) [SEQ ID NO 78] |
| > 100 nM | 11% | ZGPPISIDLPTGLLRKMIEIEKQEKEKQQAANNRLLLDTI (C-terminal amide) [SEQ ID NO 73] |
| 11 nM | 84% | ZGPPISIDLPFYLLRKMIEIEKQEKEKQQAANNRLLLDTI (C-terminal amide) [SEQ ID NO 85] |
| 52.2 nM | 96% | ZGPPISIDLPLHLLRKMIEIEKQEKEKQQAANNRLLLDTI (C-terminal amide) [SEQ ID NO 83] |
| > 100 nM | 8% | ZGPPISIDLPIYLLRKMIEIEKQEKEKQQAANNRLLLDTI (C-terminal amide) [SEQ ID NO 79] |
| > 100 nM | 33% | ZGPPISIDLPFGLLRKMIEIEKQEKEKQQAANNRLLLDTI (C-terminal amide) [SEQ ID NO 68] |
| > 100 nM | 5% | ZGPPISIDLPIHLLRKMIEIEKQEKEKQQAANNRLLLDTI (C-terminal amide) [SEQ ID NO 77] |
| 82.2 nM | 99% | ZGPPISIDLPFQLLRKMIEIEKQEKEKQQAANNRLLLDTI (C-terminal amide) [SEQ ID NO 84] |
| 34.5 nM | 88% | ZGPPISIDLPFHLLRKMIEIEKQEKEKQQAANNRLLLDTI (C-terminal amide) [SEQ ID NO 69] |
| 68.9 nM | 57% | ZGPPISIDLPNYLLRKMIEIEKQEKEKQQAANNRLLLDTI (C-terminal amide) [SEQ ID NO 64] |
| > 100 nM | 16% | ZGPPISIDLPRYLLRKMIEIEKQEKEKQQAANNRLLLDTI (C-terminal amide) [SEQ ID NO 65] |
| > 100 nM | 4% | ZGPPISIDLPTQLLRKMIEIEKQEKEKQQAANNRLLLDTI (C-terminal amide) [SEQ ID NO 72] |
| 96.2 nM | 85% | ZGPPISIDLPLELLRKMIEIEKQEKEKQQAANNRLLLDTI (C-terminal amide) [SEQ ID NO 82] |
| > 100 nM | 5% | ZGPPISIDLPIGLLRKMIEIEKQEKEKQQAANNRLLLDTI (C-terminal amide) [SEQ ID NO 75] |
| 100 nM | 9% | IVLSLDVPGPLLQILLEQTKQEAAREQATTNARILARV-NH2 [SEQ ID NO 5] |
| 100 nM | 11.2% | SQEPPISLDLTFGLLREVLEMTKADQLAQQAHSNRKLLDIA-NH2 [SEQ ID NO 88] |
| 60.9 nM | 81% | ZGPPISIDLPLYLLRKMIEIEKQEKEKQQAANNRLLLDT (C-terminal amide) [SEQ ID NO 81] |
| 100 nM | 4.6% | SQEPPISLDLTIGLLREVLEMTKADQLAQQAHSNRKLLDIA-NH2 [SEQ ID NO 86] |
| 100 nM | 4% | SQEPPISLDLPLGLLREVLEMTKADQLAQQAHSNRKLLDIA-NH2 [SEQ ID NO 90] |
| 783 nM | 64% | IVLSLDVPIGLLQELLEMARAEQLAQQAHSNRKLMEII-NH2 [SEQ ID NO 1] |

Target: T1, corticotropin releasing factor 2 …
Assay: cell-based or functional assay

| CRF2R EC50 | CRF2R Emax | Binder |
| --- | --- | --- |
| 100 nM | 14.7% | SQEPPISLDLTIHLLREVLEMTKADQLAQQAHSNRKLLDIA-NH2 [SEQ ID NO 87] |
| > 100 nM | 89% | ZGPPISIDLPTALLRKMIEIEKQEKEKQQAANNRLLLDTI (C-terminal amide) [SEQ ID NO 61] |
| 67.3 nM | 100% | ZGPPISIDLPGYLLRKMIEIEKQEKEKQQAANNRLLLDTI (C-terminal amide) [SEQ ID NO 63] |
| 10 nM | 50% | ZGPPISIDLPFELLRKMIEIEKQEKEKQQAANNRLLLDTI (C-terminal amide) [SEQ ID NO 67] |
| 94.8 nM | 56% | ZGPPISIDLPTELLRKMIEIEKQEKEKQQAANNRLLLDTI (C-terminal amide) [SEQ ID NO 71] |
| 91.5 nM | 76% | ZGPPISIDLPIELLRKMIEIEKQEKEKQQAANNRLLLDTI (C-terminal amide) [SEQ ID NO 76] |
| 6.53 nM | 88% | ZGPPISIDLPLQLLRKMIEIEKQEKEKQQAANNRLLLDTI (C-terminal amide) [SEQ ID NO 80] |
| 55 nM | 100% | ZGPPISIDLPTHLLRKMIEIEKQEKEKQQAANNRLLLDTI (C-terminal amide) [SEQ ID NO 74] |
| 18.2 nM | 82% | ZGPPISIDLPTYLLRKMIEIEKQEKEKQQAANNRLLLDTI (C-terminal amide) [SEQ ID NO 70] |
| 24.6 nM | 78% | ZGPPISIDLPIQLLRKMIEIEKQEKEKQQAANNRLLLDTI (C-terminal amide) [SEQ ID NO 78] |
| > 100 nM | 11% | ZGPPISIDLPTGLLRKMIEIEKQEKEKQQAANNRLLLDTI (C-terminal amide) [SEQ ID NO 73] |
| 2.34 nM | 100% | ZGPPISIDLPFYLLRKMIEIEKQEKEKQQAANNRLLLDTI (C-terminal amide) [SEQ ID NO 85] |
| 1.91 nM | 81% | ZGPPISIDLPLHLLRKMIEIEKQEKEKQQAANNRLLLDTI (C-terminal amide) [SEQ ID NO 83] |
| 22.3 nM | 100% | ZGPPISIDLPIYLLRKMIEIEKQEKEKQQAANNRLLLDTI (C-terminal amide) [SEQ ID NO 79] |
| 38.5 nM | 74% | ZGPPISIDLPFGLLRKMIEIEKQEKEKQQAANNRLLLDTI (C-terminal amide) [SEQ ID NO 68] |
| 43.4 nM | 100% | ZGPPISIDLPIHLLRKMIEIEKQEKEKQQAANNRLLLDTI (C-terminal amide) [SEQ ID NO 77] |
| 1.77 nM | 100% | ZGPPISIDLPFQLLRKMIEIEKQEKEKQQAANNRLLLDTI (C-terminal amide) [SEQ ID NO 84] |
| 5.85 nM | 81% | ZGPPISIDLPFHLLRKMIEIEKQEKEKQQAANNRLLLDTI (C-terminal amide) [SEQ ID NO 69] |
| 63.3 nM | 94% | ZGPPISIDLPNYLLRKMIEIEKQEKEKQQAANNRLLLDTI (C-terminal amide) [SEQ ID NO 64] |
| 67.9 nM | 64% | ZGPPISIDLPRYLLRKMIEIEKQEKEKQQAANNRLLLDTI (C-terminal amide) [SEQ ID NO 65] |
| > 100 nM | 55% | ZGPPISIDLPTQLLRKMIEIEKQEKEKQQAANNRLLLDTI (C-terminal amide) [SEQ ID NO 72] |
| 10.9 nM | 90% | ZGPPISIDLPLELLRKMIEIEKQEKEKQQAANNRLLLDTI (C-terminal amide) [SEQ ID NO 82] |
| > 100 nM | 52% | ZGPPISIDLPIGLLRKMIEIEKQEKEKQQAANNRLLLDTI (C-terminal amide) [SEQ ID NO 75] |
| 100 nM | 12% | IVLSLDVPGPLLQILLEQTKQEAAREQATTNARILARV-NH2 [SEQ ID NO 5] |
| 100 nM | 12.6% | SQEPPISLDLTFGLLREVLEMTKADQLAQQAHSNRKLLDIA-NH2 [SEQ ID NO 88] |
| 4.3 nM | 73% | ZGPPISIDLPLYLLRKMIEIEKQEKEKQQAANNRLLLDT (C-terminal amide) [SEQ ID NO 81] |
| 100 nM | 8.1% | SQEPPISLDLTIGLLREVLEMTKADQLAQQAHSNRKLLDIA-NH2 [SEQ ID NO 86] |
| 100 nM | 12.2% | SQEPPISLDLPLGLLREVLEMTKADQLAQQAHSNRKLLDIA-NH2 [SEQ ID NO 90] |
| 31.5 nM | 100% | IVLSLDVPIGLLQELLEMARAEQLAQQAHSNRKLMEII-NH2 [SEQ ID NO 1] |
